The data set concerns the molecule itself. Nature of the data set: SEC; tetramer to dimers; SEC-HPLC of samples at 1.25, 2.5, 5, 10 and 20 μM (heme basis) after incubation in 0.1 M PBS pH 7.4 at 4°C for one week; fraction of tetramers by deconvolution, Kd from the intercept of the linearised plot (Eq 3).

A word on the Kd: it is the equilibrium constant for the complex coming apart. Low readings indicate higher affinity, high ones lower affinity.

B1: bovine methemoglobin (complex)
chain 1: not shown
chain 2: not shown
notes: hemoglobin alpha chain, bovine, from whole bovine blood; hemoglobin beta chain, bovine, from whole bovine blood; same chains as m1; the heme iron is oxidised to the ferric state (HbFe3+); purity 99.7 ± 0.2%; also called metbHb; bovine metHb; copies: 2 + 2
B1 had a Kd of 550 nM.

B2: bovine hemoglobin (complex)
chain 1: not shown
chain 2: not shown
notes: hemoglobin alpha chain, bovine, from whole bovine blood; hemoglobin beta chain, bovine, from whole bovine blood; alpha2beta2 tetramer with ferrous heme (HbFe2+); in equilibrium with alpha-beta dimers; also called bHb; unmodified bHb; source: purified from bovine red blood cells (lysis, tangential flow filtration); copies: 2 + 2
The protein B2 showed a Kd of 500 nM.

The values above are taken from article PMC8849478, “Scalable manufacturing platform for the production of methemoglobin as a non-oxygen carrying control material in studies of cell-free hemoglobin solutions” (PLoS ONE, 2022).
